Paper PMC12732928, “The Study of Ice-Binding Protein Oligomeric Complexes” (International Journal of Molecular Sciences, 2025)
Several values for one entry are separate records, joined by “and”; a condition that tells them apart may be missing. Equal values may be shown once.

What was measured:
[1] = target: the molecule itself; test: MALDI-TOF mass spectrometry; protein at 0.4 mM desalted on a C4 ZipTip, alpha-CHCA matrix, positive linear mode, 8-190 kDa
[2] = target: the molecule itself; test: MALDI-TOF mass spectrometry; samples obtained after freezing; otherwise as the other MALDI spectra; high-order forms of low intensity

B1: ice-binding protein P80961 from longhorn sculpin (Myoxocephalus octodecemspinosus) (natural protein)
chain: MKFSLVATIVLLALAQGSFAQGAADLESLGQYFEEMKTKLIQDMTEIIRSQDLANQAQAFVEDKKTQLQPLVAQIQEQMKTVATNVEEQIRPLTANVQAHLQPQIDNFQKQMEAIIKKLTDQTMAIEN
stoichiometry N [1]: 2 and 3 and 4
stoichiometry N [2]: 5 and 6 and 7
